Here are results for three substances from IntAct's records for PubMed 16266891.

The target of the experiment is pim1_human PIM1 (UniProt P11309).

For “Small ribosomal subunit protein eS19 (Homo sapiens) (from UniProt P39019) R56Q”, the “effect of a mutation on the interaction” value was “increasing interaction”. Consider “Small ribosomal subunit protein eS19 (Homo sapiens) (from UniProt P39019) R62W”, for which the “effect of a mutation on the interaction” value is reported as “increasing interaction”. Under “Small ribosomal subunit protein eS19 (Homo sapiens) (from UniProt P39019) R101H” stands “decreasing interaction”.
